Assay results published in PMC9676460, “Dynamic acylome reveals metabolite driven modifications in Syntrophomonas wolfei” (Frontiers in Microbiology, 2022).
“And” between values parts separate entries of the source, which are not always exact repeats. Equal values may be shown once.

Target: the molecule itself
Assay: crystal structure; Act2 alone; hanging drop, 0.1 M sodium formate pH 7.0, 12% PEG 3,350, room temperature; space group P 41 21 2; two molecules in the asymmetric unit; tetramer from crystal packing

B1: Syntrophomonas wolfei Göttingen Act2 (Swol_0675), acetyl-CoA acetyltransferase (enzyme)
chain: MAEINEVVVVGMARTPIGRYLGGLASVRANDLAIIAANAAIERAGVDPGIIDEIVGATCLHAGNGSLPPRIIGMKVGLPVRSGSCMVSQNCASGMRATEIACQNIMLGKTDISLVTAVESMSNIPYLLQQARSGYRMGDGKVQDAMLSDGLVCQLAGGHMGMTAENIAEKYGITREECDALALTSHQNAVKAVDEGIFDREIVPVVIKSKKGDKVISKDEHPIRGASLETMAKLPPAFKKGGVVTAANASGINDCAAAAVFMSKKKCEELGLKPLMKLVGICSEGVDAKVMGLGPAVAMPKVLKQAGWKYEDVDYWEVNEAFAAQVLGVVRMLKEEAGIELDFSKTNHNGSGIGLGHPVGATGLRIIVSMYYELERLGLTKGGASLCVGGGSAMASLWTRDI
notes: Act2, acetyl-CoA acetyltransferase encoded by the gene Swol_0675 of Syntrophomonas wolfei subsp. wolfei strain Göttingen; synthesized gene cloned into pMAPLe4; The asymmetric unit holds a homodimer; also called acetyl-CoA transferase; acyl-CoA transferase paralog; source: E. coli BL21-Gold (DE3), purified (NiNTA, TEV cleavage, Superdex 200 SEC); not shown: His6, N-terminal, cleaved
- stoichiometry N: 2 and 4
